Results as given in article PMC7362310 (Molecular cell, 2020).
Blank lines part the entries; values can stand above or below the binder they belong to.

Key:
[1] = target: FLAG-tagged BRD4-L purified from insect Sf9 cells (human, UniProt O60885-1 1-1362); experiment: pull-down
[2] = target: FLAG-tagged BRD4-S(a) purified from insect Sf9 cells (human, UniProt O60885-2 1-722); experiment: pull-down

- binding result [1]: binds
- binding result [2]: binds
B1: FLAG-tagged EN1 purified from bacteria (natural protein, UniProt Q05925 1-392, looked up)
chain: MEEQQPEPKSQRDSALGAAAAATPGGLSLSLSPGASGSSGSGSDGDSVPVSPQPAPPSPPAAPCLPPLAHHPHLPPHPPPPPPQHLAAPAHQPQPAAQLHRTTNFFIDNILRPDFGCKKEQPPPQLLVAAAARGGAGGGGRVERDRGQTAAGRDPVHPLGTRAPGAASLLCAPDANCGPPDGSQPAAAGAGASKAGNPAAAAAAAAAAVAAAAAAAAAKPSDTGGGGSGGGAGSPGAQGTKYPEHGNPAILLMGSANGGPVVKTDSQQPLVWPAWVYCTRYSDRPSSGPRTRKLKKKKNEKEDKRPRTAFTAEQLQRLKAEFQANRYITEQRRQTLAQELSLNESQIKIWFQNKRAKIKKATGIKNGLALHLMAQGLYNHSTTTVQDKDESE

- binding result [1]: binds
- binding result [2]: binds
B2: FLAG-tagged EN2 purified from bacteria (natural protein, UniProt P19622 1-333, looked up)
chain: MEENDPKPGEAAAAVEGQRQPESSPGGGSGGGGGSSPGEADTGRRRALMLPAVLQAPGNHQHPHRITNFFIDNILRPEFGRRKDAGTCCAGAGGGRGGGAGGEGGASGAEGGGGAGGSEQLLGSGSREPRQNPPCAPGAGGPLPAAGSDSPGDGEGGSKTLSLHGGAKKGGDPGGPLDGSLKARGLGGGDLSVSSDSDSSQAGANLGAQPMLWPAWVYCTRYSDRPSSGPRSRKPKKKNPNKEDKRPRTAFTAEQLQRLKAEFQTNRYLTEQRRQSLAQELSLNESQIKIWFQNKRAKIKKATGNKNTLAVHLMAQGLYNHSTTAKEGKSDSE
